Consider three molecules from patent US20190016816A1 (APTEVO RESEARCH AND DEVELOPMENT, published 2019).

Residue numbers refer to the chain shown, from its start. Some results are limits rather than exact numbers.

What is called EC50 is the concentration at which the effect is half-maximal. A lower EC50 goes with a more potent agent.

In assay [1] the target is T1, human CD137 on cells (human, UniProt Q07011 24-255). Briefly: cell-based or functional assay.
For assay [2], the target named is T1, human CD137 on cells. Briefly: flow cytometry, CHO-K1 cells expressing human CD137, PE anti-human IgG Fc secondary, MFI (median). How it is done: (§1) Binding studies on CHO-K1 cells lines expressing CD137 were performed by standard flow cytometry-based staining procedures. CHO-K1 cells (generated by Alligator) were transfected with human or cynomolgus macaque CD137. A typical experiment would label approximately 100,000 cells per well, in 96-well plates, with a range of 100 nM to 0.05 nM binding molecule in 50 μL of saline buffer with 2% BSA and 2 mM EDTA, for 30 min on ice, followed by washes and incubation with PE-labeled secondary antibody, goat anti-human IgG Fcγ ([…]), for 20 minutes on ice. Signal from bound molecules was detected using a LSR-II™ or a Symphony A3 flow cytometer (BD Biosciences) and analyzed by FlowJo flow cytometry analysis software. Median fluorescence intensity (MFI-median) of bound molecules on live cells was determined after exclusion of doublets cells. Nonlinear regression analysis to determine EC₅₀ values was performed in GraphPad Prism 6® graphing and statistics software.

The target of assay [3] is T2, human 5T4 on cells (human, UniProt Q13641 32-420).
T2 construct: also called TPBG; hu5T4
T2 sequence: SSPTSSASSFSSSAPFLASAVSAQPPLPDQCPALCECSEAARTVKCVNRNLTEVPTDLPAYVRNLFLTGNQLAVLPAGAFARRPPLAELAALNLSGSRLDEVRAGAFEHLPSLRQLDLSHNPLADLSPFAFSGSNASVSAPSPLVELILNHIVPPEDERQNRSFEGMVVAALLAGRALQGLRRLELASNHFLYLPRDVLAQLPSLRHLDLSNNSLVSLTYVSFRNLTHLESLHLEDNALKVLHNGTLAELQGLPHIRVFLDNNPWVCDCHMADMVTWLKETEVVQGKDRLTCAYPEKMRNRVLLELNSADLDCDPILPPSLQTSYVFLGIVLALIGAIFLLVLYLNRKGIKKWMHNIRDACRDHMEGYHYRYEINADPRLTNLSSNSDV
Briefly: flow cytometry, CHO-K1 cells expressing human 5T4, labelled anti-human IgG secondary, MFI (mean). How it is done: (§2) Binding studies were performed by standard flow cytometry-based staining procedures two cell lines expressing 5T4:CHO-K1 cells (obtained from Alligator) transduced with human or cynomolgus macaque 5T4 and SKOV-3 human ovarian adenocarcinoma cells which express (human) 5T4. All labeling and washes were performed in U-bottom 96-well plates in saline buffer with 0.1% BSA and 2 mM EDTA. Cell were plated at approximately 100,000 cells per well and incubated with a range of 100 nM to 0.05 nM concentrations of test molecules in […], for 30 minutes on ice. Cells were washed three times then incubated for another 30 min on ice with fluorescently-labeled secondary polyclonal antibody, F(ab′)² goat anti-human IgG (Jackson ImmunoResearch Laboratories). The cells were then washed twice and the samples acquired in a BD LSRII or a Symphony A3 flow cytometer. The sample files were analyzed using FlowJo software; the mean fluorescence intensity (MFI-mean) or median fluorescence intensity (MFI-median) of the live population of cells in each well was calculated after gating on live cells (forward vs side scatter). Nonlinear regression analysis to determine EC₅₀ values was performed in GraphPad Prism 6® graphing and statistics software.
A general note: Flow cytometry measures light scatter and fluorescence of single cells or particles in a stream.

Another assay concerns the target T3, cynomolgus 5T4 on cells (cynomolgus macaque, UniProt Q4R8Y9 35-420).
T3 construct: whole, on cells; also called CHO-K1/cynomolgus 5T4 transfectants
T3 sequence (looked up): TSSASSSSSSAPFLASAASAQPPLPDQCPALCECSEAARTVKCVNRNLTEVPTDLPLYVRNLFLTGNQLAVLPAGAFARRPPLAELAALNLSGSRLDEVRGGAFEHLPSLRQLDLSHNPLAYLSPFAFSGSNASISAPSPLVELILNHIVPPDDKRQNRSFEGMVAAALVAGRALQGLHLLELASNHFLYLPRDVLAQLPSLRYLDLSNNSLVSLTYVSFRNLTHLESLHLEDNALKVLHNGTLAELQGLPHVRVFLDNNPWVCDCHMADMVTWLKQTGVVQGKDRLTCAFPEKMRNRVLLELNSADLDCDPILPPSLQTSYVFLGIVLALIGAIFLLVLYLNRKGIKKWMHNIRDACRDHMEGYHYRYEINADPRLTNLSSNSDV
Nature of the assay: flow cytometry, CHO-K1 cells expressing cynomolgus 5T4, labelled anti-human IgG secondary, MFI (median). How it is done:
as §2

The target in assay [4] is T4, cynomolgus CD137 on cells (cynomolgus macaque, UniProt A9YYE7 24-254).
T4 construct: whole, on cells; also called CHO-K1/cynomolgus CD137 cell line; cynomolgus monkey CD137 on CD3-stimulated primary CD8 T cells
Briefly: flow cytometry, CHO-K1 cells expressing cynomolgus CD137, PE anti-human IgG Fc secondary, MFI (median). How it is done:
as §1

The target in assay [5] is T2, human 5T4 on cells. Briefly: flow cytometry, SKOV-3 cells (endogenous human 5T4), labelled anti-human IgG secondary, MFI (mean). How it is done:
as §2

T4 sequence (A9YYE7 entry or part of it): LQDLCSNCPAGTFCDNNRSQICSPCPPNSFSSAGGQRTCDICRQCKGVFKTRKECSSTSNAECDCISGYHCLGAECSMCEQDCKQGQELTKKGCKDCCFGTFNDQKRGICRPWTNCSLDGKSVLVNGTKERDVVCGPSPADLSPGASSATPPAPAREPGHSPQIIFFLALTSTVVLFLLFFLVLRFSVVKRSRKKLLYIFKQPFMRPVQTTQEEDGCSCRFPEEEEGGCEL
T1 sequence (Q07011 24-255 limits assumed): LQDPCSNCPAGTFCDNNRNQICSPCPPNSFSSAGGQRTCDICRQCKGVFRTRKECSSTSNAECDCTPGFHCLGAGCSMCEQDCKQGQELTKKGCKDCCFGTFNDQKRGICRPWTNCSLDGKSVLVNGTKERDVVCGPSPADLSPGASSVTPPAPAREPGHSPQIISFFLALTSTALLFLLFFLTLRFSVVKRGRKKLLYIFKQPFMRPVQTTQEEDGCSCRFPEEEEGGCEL

B1: ALG.APV-191 (bispecific antibody)
chain: EVQLLESGGGLVQPGGSLRLSCAASGFTFDYGSMYWVRQAPGKGLEWVSSISSGSGSTYYADSVKGRFTISHDNSKNTLYLQMNSLRAEDTAVYYCARSSYYGSYYSIDYWGQGTLVTVSSGGGGSGGGGSGGGGSGGGGSDIQMTQSPSSLSASVGDRVTITCRASQSISSYLNWYQQKPGKAPKLLIYAASSLHSGVPSRFSGSGSGTDFTLTISSLQPEDFATYYCQQYYDNLPTFGQGTKLEIKSSEPKSSDKTHTCPPCPAPEAAGAPSVFLFPPKPKDTLMISRTPEVTCVVVDVSHEDPEVKFNWYVDGVEVHNAKTKPREEQYNSTYRVVSVLTVLHQDWLNGKEYKCAVSNKALPAPIEKTISKAKGQPREPQVYTLPPSRDELTKNQVSLTCLVKGFYPSDIAVEWESNGQPENNYKTTPPVLDSDGSFFLYSKLTVDKSRWQQGNVFSCSVMHEALHNHYTQKSLSLSPGSGGGGSGGGGSGGGGSPSEVQLLESGGGLVQPGGSLRLSCAASGFTFSSYAMSWVRQAPGKCLEWVSAISGSGGSTYYADSVKGRFTISRDNSKNTLYLQMNSLRAEDTAVYYCARYYGGYYSAWMDYWGQGTLVTVSSGGGGSGGGGSGGGGSGGGGSDIQMTQSPSSLSASVGDRVTITCRASQSISSFLNWYQQKPGKAPKLLIYAASSLQSGVPSRFSGSGSGTDFTLTISSLQPEDFATYYCQQTYGYLHTFGCGTKLEIKS
notes: Optimized ADAPTIR scFv-Fc-scFv homodimer
For the molecule B1, in the assay with human CD137 on cells [1], the “CD137 reporter assay with HCC1143 cells, EC50 against ALG.APV-006 and ALG.APV-004” value (shortened to “CD137 reporter assay with HCC1143 cells”) was not above 6 fold lower EC50. For the same molecule, the EC50 worked out at 1.1 nM with human CD137 on cells [2], 10.9 nM in the assay with human 5T4 on cells [3], 22 nM with cynomolgus 5T4 on cells and 1.7 nM in assay [4]. Besides, the “Maximum MFI” value in the assay with human 5T4 on cells [3] is 14100; with cynomolgus 5T4 on cells, 25100.

B2: ALG.APV-196 (bispecific antibody)
chain: B1 chain with D30S, H196Q, T527D, S529E, S670R, F672A, S748R
notes: as for B1
For the molecule B2, the “CD137 reporter assay with HCC1143 cells” value with human CD137 on cells [1] is not above 6 fold lower EC50. Besides, the EC50 amounted to 0.9 nM in the assay with human CD137 on cells [2]; 3.4 nM with human 5T4 on cells [3]; 7 nM with cynomolgus 5T4 on cells; 1.8 nM in assay [4]; 1.7 nM with human 5T4 on cells [5]. Besides, the “Maximum MFI” value was found to be 13500 in the assay with human 5T4 on cells [3], 21100 with cynomolgus 5T4 on cells and 1130 with human 5T4 on cells [5].

B3: ALG.APV-198 (bispecific antibody)
chain: B1 chain with D30S, Y31H, H196Q, T527D, S529E, S670R, F672A, S748R
notes: as for B1
In the case of B3, the “CD137 reporter assay with HCC1143 cells” value in the assay with human CD137 on cells [1] was not above 6 fold lower EC50. For the same molecule, the EC50 with human CD137 on cells [2] stood at 1 nM; in the assay with human 5T4 on cells [3] it was 3.1 nM; with cynomolgus 5T4 on cells it was 7 nM; in assay [4] it was 1.8 nM; in the assay with human 5T4 on cells [5], 1.8 nM. Moreover, the results for the “Maximum MFI” value with human 5T4 on cells [3], with cynomolgus 5T4 on cells and in the assay with human 5T4 on cells [5] were 13200, 20600 and 1070, respectively.
